How the values were obtained:
[1] = target: T1, Human IL-7R-hFc antigen (R&D systems) (human, UniProt P16871 21-239); assay: SPR (Biacore 2000/3000), IL-7R-hFc captured on anti-human Fc, antibody as analyte
T1 construct: Bought from R&D Systems; not shown: human Fc (hFc) of the bought fusion
T1 sequence (looked up): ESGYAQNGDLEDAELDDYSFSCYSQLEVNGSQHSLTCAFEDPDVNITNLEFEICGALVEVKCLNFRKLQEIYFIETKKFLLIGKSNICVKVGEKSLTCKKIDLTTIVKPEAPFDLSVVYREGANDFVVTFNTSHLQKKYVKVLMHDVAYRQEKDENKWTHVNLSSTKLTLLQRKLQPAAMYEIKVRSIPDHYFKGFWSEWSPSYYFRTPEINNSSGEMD
Procedure: The affinities of antagonist IL-7R antibodies to human IL-7R were measured on a surface plasmon resonance Biacore™ 2000 or 3000 biosensor equipped with a research-grade CM5 sensor chip (Biacore™ AB, Uppsala, Sweden—now GE Healthcare). Goat polyclonal anti-human F(ab′)2 fragments (Fc specific) were amine-coupled at saturating levels onto all four flow cells using a standard N-hydroxysuccinimide/ethyldimethylaminopropyl carbodiimide (NHS/EDC) chemistry in HBS-P running buffer (from Biacore™). The buffer was switched to HBS-P containing 1 mg/mL BSA. Human IL-7R-hFc antigen (R&D systems, Minneapolis, USA) was diluted to about 30 μg/mL and captured for 3 min at 5 μL/min to give levels of about 500-1000 RU per flow cell, leaving one blank to serve as a reference channel. Fab, hIgG1, or hIgG2ΔA formats of the antibodies were injected in duplicates as a 5-membered 3-fold series starting at 2 μM and a 5-membered 4-fold series starting at 0.4 μM for 3 min at 20-50 μL/min. Dissociation was monitored for 5 min. The capture chip was regenerated after the last injection of each titration with two 30 sec pulses of 75 mM phosphoric acid or 10 mM Glycine-HCl pH 1.7. Buffer cycles provided blanks for double-referencing the binding response data, which were then fit globally to a simple reversible binding model using Biaevaluation software v.4.1 to deduce the kinetic association and dissociation rate constants, respectively kₐ and kd. Affinities were deduced from their ratio (KD=kd/kₐ).

[2] = target: T2, human IL-7R on human peripheral blood mononuclear cells (CD4+ gated) (human, UniProt P16871 21-459); assay: cell-based or functional assay
T2 sequence (looked up): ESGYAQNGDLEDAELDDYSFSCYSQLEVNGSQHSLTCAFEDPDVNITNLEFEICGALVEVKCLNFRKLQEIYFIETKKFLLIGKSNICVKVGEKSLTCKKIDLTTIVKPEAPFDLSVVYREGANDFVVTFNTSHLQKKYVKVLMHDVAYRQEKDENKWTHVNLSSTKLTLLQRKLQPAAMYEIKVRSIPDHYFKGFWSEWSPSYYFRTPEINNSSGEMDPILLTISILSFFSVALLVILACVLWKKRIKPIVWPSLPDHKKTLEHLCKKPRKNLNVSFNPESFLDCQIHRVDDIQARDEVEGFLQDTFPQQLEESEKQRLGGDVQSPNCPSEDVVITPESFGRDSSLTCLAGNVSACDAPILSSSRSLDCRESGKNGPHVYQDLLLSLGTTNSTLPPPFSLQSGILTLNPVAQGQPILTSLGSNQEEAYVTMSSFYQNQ

B1: C1GM (hIgG1) (antibody)
heavy: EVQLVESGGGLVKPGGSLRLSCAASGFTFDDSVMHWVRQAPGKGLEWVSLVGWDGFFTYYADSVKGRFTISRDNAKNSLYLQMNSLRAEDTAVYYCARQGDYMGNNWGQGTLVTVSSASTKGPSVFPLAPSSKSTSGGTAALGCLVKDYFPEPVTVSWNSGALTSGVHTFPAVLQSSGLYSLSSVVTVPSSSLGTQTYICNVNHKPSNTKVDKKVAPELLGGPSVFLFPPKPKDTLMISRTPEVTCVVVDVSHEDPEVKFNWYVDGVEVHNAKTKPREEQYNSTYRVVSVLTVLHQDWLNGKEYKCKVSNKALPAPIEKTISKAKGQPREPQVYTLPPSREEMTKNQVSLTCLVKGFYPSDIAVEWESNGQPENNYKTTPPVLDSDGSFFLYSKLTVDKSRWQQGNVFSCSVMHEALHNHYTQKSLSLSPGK
light: NFMLTQPHSVSESPGKTVTISCTRSSGSIDSSYVQWYQQRPGSSPTTVIYEDDQRPSGVPDRFSGSIDSSSNSASLTISGLKTEDEADYYCQSYDFHHLVFGGGTKLTVLQPKAAPSVTLFPPSSEELQANKATLVCLISDFYPGAVTVAWKADSSPVKAGVETTTPSKQSNNKYAASSYLSLTPEQWKSHRSYSCQVTHEGSTVEKTVAPTECS
Kd [1]: 0.286 nM
koff [1]: 0.000405 s⁻¹
kon [1]: 1.42e+06 M⁻¹ s⁻¹

B2: C1GM-2 (hIgG2ΔA) (antibody)
heavy: EVQLVESGGGLVKPGGSLRLSCAASGFTFDDSVMHWVRQAPGKGLEWVSLVGWDGFFTYYADSVKGRFTISRDNAKNSLYLQMNSLRAEDTAVYYCARQGDYMGNNWGQGTLVTVSSASTKGPSVFPLAPCSRSTSESTAALGCLVKDYFPEPVTVSWNSGALTSGVHTFPAVLQSSGLYSLSSVVTVPSSNFGTQTYTCNVDHKPSNTKVDKTVAPPVAGPSVFLFPPKPKDTLMISRTPEVTCVVVDVSHEDPEVQFNWYVDGVEVHNAKTKPREEQFNSTFRVVSVLTVVHQDWLNGKEYKCKVSNKGLPSSIEKTISKTKGQPREPQVYTLPPSREEMTKNQVSLTCLVKGFYPSDIAVEWESNGQPENNYKTTPPMLDSDGSFFLYSKLTVDKSRWQQGNVFSCSVMHEALHNHYTQKSLSLSPGK
light: NFMLTQPHSVSESPGKTVTISCTRSSGSIDSSYVQWYQQRPGSSPTTVIYEDDQRPSGVPDRFSGSIDSSSNSASLTISGLKTEDEADYYCQSYDFHHLVFGGGTKLTVLQPKAAPSVTLFPPSSEELQANKATLVCLISDFYPGAVTVAWKADSSPVKAGVETTTPSKQSNNKYAASSYLSLTPEQWKSHRSYSCQVTHEGSTVEKTVAPTECS
notes: the footnote is printed with **)
Kd [1]: 0.27 nM
koff [1]: 0.000407 s⁻¹
kon [1]: 1.51e+06 M⁻¹ s⁻¹

B3: P2D2 (antagonist IL-7R fully human monoclonal antibody, format not stated) (antibody, V domains shown)
VH: QVNLRESGGGLVKPGGSLRLSCAASGFTFDDSVMHWVRQAPGKGLEWLSLVGWDGFFTYYADSVKGRFTISRDNTKNLLYLQMNSLRAEDTAVYYCARQGDYVFNNWGQGTLVTVSS
VL: NFMLTQPHSVSGSPGKTVTISCTRSSGSIDSSYVQWYQQRPGNSPTTVIYEDDQRPSGVPDRFSGSIDSSSNSASLTISGLVTEDEADYYCMQYDSSHLVFGGGTKLTVLC
IC50 (read off the curve) [2]: ~0.1 µg/mL

B4: P2E11 (antagonist IL-7R fully human monoclonal antibody, format not stated) (antibody, V domains shown)
VH: QVNLRESGGGLVKPGGSLRLSCAASGFTFDDSVMHWVRQAPGKGLEWLSLVGWDGFFTYYADSVKGRFTISRDNTKNLLYLQMNSLRAEDTAVYYCARQGDYMGDYWGQGTLVTVSS
VL: NFMLTQPHSVSGSPGKTVTISCTRSSGSIDSSYVQWYQQRPGNSPTTVIYEDDQRPSGVPDRFSGSIDSSSNSASLTISGLVTEDEADYYCQSYDFHHLVFGGGTKLTVLC
IC50 (read off the curve) [2]: ~0.04 µg/mL

B5: C2M3 (hIgG1) (antibody, V domains shown)
VH: EVQLVESGGGLVKPGGSLRLSCAASGFTFDDSVMHWVRQAPGKGLEWVSLVGWDGFFTYYADSVKGRFTISRDNAKNSLYLQMNSLRAEDTAVYYCARQGDYMGNNWGQGTLVTVSS
VL: NFMLTQPHSVSESPGKTVTISCTRSSGSIDSSYVQWYQQRPGSSPTTVIYEDDQRPSGVPDRFSGSIDSSSNSASLTISGLKTEDEADYYCMQYDFHHLVFGGGTKLTVL
notes: Only variable domains are tied to C2M3
Kd [1]: 0.218 nM
koff [1]: 0.000307 s⁻¹
kon [1]: 1.41e+06 M⁻¹ s⁻¹

B6: C2M3 (hIgG2ΔA) (antibody, V domains shown)
VH: EVQLVESGGGLVKPGGSLRLSCAASGFTFDDSVMHWVRQAPGKGLEWVSLVGWDGFFTYYADSVKGRFTISRDNAKNSLYLQMNSLRAEDTAVYYCARQGDYMGNNWGQGTLVTVSS
VL: NFMLTQPHSVSESPGKTVTISCTRSSGSIDSSYVQWYQQRPGSSPTTVIYEDDQRPSGVPDRFSGSIDSSSNSASLTISGLKTEDEADYYCMQYDFHHLVFGGGTKLTVL
notes: the footnote is printed with **); Only variable domains are tied to C2M3
Kd [1]: 0.195 nM
koff [1]: 0.000302 s⁻¹
kon [1]: 1.55e+06 M⁻¹ s⁻¹

B7: HAL403a Fab (Fab, V domains shown)
VH: QVNLRESGGGLVKPGGSLRLSCAASGFTFDDSVMHWVRQAPGKGLEWLSLVGWDGFFTYYADSVKGRFTISRDNTKNLLYLQMNSLRAEDTAVYYCARQGDYMGNNWGQGTLVTVSS
VL: NFMLTQPHSVSGSPGKTVTISCTRSSGSIDSSYVQWYQQRPGNSPTTVIYEDDQRPSGVPDRFSGSIDSSSNSASLTISGLVTEDEADYYCQSYDFHHLVFGGGTKLTVLC
Kd [1]: 0.06 nM
koff [1]: 0.000286 s⁻¹
kon [1]: 5.07e+06 M⁻¹ s⁻¹

B8: C1GM Fab (Fab, V domains shown)
VH: EVQLVESGGGLVKPGGSLRLSCAASGFTFDDSVMHWVRQAPGKGLEWVSLVGWDGFFTYYADSVKGRFTISRDNAKNSLYLQMNSLRAEDTAVYYCARQGDYMGNNWGQGTLVTVSS
VL: NFMLTQPHSVSESPGKTVTISCTRSSGSIDSSYVQWYQQRPGSSPTTVIYEDDQRPSGVPDRFSGSIDSSSNSASLTISGLKTEDEADYYCQSYDFHHLVFGGGTKLTVL
Kd [1]: 0.04 nM
koff [1]: 0.000171 s⁻¹
kon [1]: 4.85e+06 M⁻¹ s⁻¹

B9: HAL403b Fab (Fab, V domains shown)
VH: QVNLRESGGGLVKPGGSLRLSCAASGFTFDDSVMHWVRQAPGKGLEWLSLVGWDGFFTYYADSVKGRFTISRDNTKNLLYLQMNSLRAEDTAVYYCARQGDYMGNNWGQGTLVTVSS
VL: NFMLTQPHSVSGSPGKTVTISCTRSSGSIDSSYVQWYQQRPGNSPTTVIYEDDQRPSGVPDRFSGSIDSSSNSASLTISGLVTEDEADYYCMQYDFHHLVFGGGTKLTVLC
Kd [1]: 0.06 nM
koff [1]: 8.08e-05 s⁻¹
kon [1]: 1.39e+06 M⁻¹ s⁻¹

B10: P3A9 Fab (Fab, V domains shown)
VH: QVNLRESGGGLVKPGGSLRLSCAASGFTFDDSVMHWVRQAPGKGLEWLSLVGWDGSATYYADSVKGRFTISRDNTKNLLYLQMNSLRAEDTAVYYCARQGDYVFDYWGQGTLVTVSS
VL: NFMLTQPHSVSGSPGKTVTISCTRSSGSIDSSYVQWYQQRPGNSPTTVIYEDDQRPSGVPDRFSGSIDSSSNSASLTISGLVTEDEADYYCQSYDSSHLVFGGGTKLTVLC
Kd [1]: 204 nM
koff [1]: 0.0114 s⁻¹
kon [1]: 56000 M⁻¹ s⁻¹

B11: P2D2 Fab (Fab, V domains shown)
VH: QVNLRESGGGLVKPGGSLRLSCAASGFTFDDSVMHWVRQAPGKGLEWLSLVGWDGFFTYYADSVKGRFTISRDNTKNLLYLQMNSLRAEDTAVYYCARQGDYVFNNWGQGTLVTVSS
VL: NFMLTQPHSVSGSPGKTVTISCTRSSGSIDSSYVQWYQQRPGNSPTTVIYEDDQRPSGVPDRFSGSIDSSSNSASLTISGLVTEDEADYYCMQYDSSHLVFGGGTKLTVLC
Kd [1]: 12 nM
koff [1]: 0.000882 s⁻¹
kon [1]: 71700 M⁻¹ s⁻¹

B12: P2E11 Fab (Fab, V domains shown)
VH: QVNLRESGGGLVKPGGSLRLSCAASGFTFDDSVMHWVRQAPGKGLEWLSLVGWDGFFTYYADSVKGRFTISRDNTKNLLYLQMNSLRAEDTAVYYCARQGDYMGDYWGQGTLVTVSS
VL: NFMLTQPHSVSGSPGKTVTISCTRSSGSIDSSYVQWYQQRPGNSPTTVIYEDDQRPSGVPDRFSGSIDSSSNSASLTISGLVTEDEADYYCQSYDFHHLVFGGGTKLTVLC
Kd [1]: 3 nM
koff [1]: 0.000497 s⁻¹
kon [1]: 155000 M⁻¹ s⁻¹

B13: P4B3 Fab (Fab, V domains shown)
VH: QVTLKESGGGLVQPGGSLRLSCAASGFTFSNYGMHWVRQAPGKGLEWVSAISGSGGSTYYADSVKGRFTISRDNSKNTVYLQMNSLRDEDTAVYYCARDISGGGMDVWGQGTTVTVSS
VL: NFMLTQPHSVSESPGKTVTISCTGSSGRIASSYVQWYQQRPGSAPTTVIYEDNQRPSGVPDRFSGSIDSSSNSASLTISGLKTEDEADYYCQSYASSSLWVFGGGTQLTVLS
Kd [1]: 225 nM
koff [1]: 0.00351 s⁻¹
kon [1]: 15600 M⁻¹ s⁻¹

Source: patent US20180327503A1 (RINAT NEUROSCIENCE, published 2018)
